Test results reported in US7452690.

Test system: PL-FXa-b2AR fusion protein (ED-FXa cleavage site-beta2-adrenergic receptor) expressed on transiently transfected HEK293 cells

Factor Xa was tested, and the “EFC activity as relative luminescent units (RLU)” value was “a difference in about 30000 RLUs was observed over a range in concentration of FXa of about 10^-3 to 10^1 µg/mL” and the “readings (chemiluminescence, β-galactosidase enzyme fragment complementation after cleavage)” value was “the transiently infected cells showed an increase in the readings from 0.01 ng/well to 1000 ng/well of Factor Xa”.
